# T1: GPC3 peptide 321-350 (SEQ ID NO: 17) (human)
# T1 construct: Synthetic 30-residue peptide of GPC3
# T1 peptide: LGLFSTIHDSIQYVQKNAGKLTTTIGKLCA
# T2: GPC3 peptide 551-580 (SEQ ID NO: 29) (human)
# T2 construct: Synthetic 30-residue peptide of GPC3
# T2 peptide: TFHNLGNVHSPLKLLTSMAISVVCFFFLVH
# T3: GPC3 peptide 121-150 (SEQ ID NO: 7) (human)
# T3 construct: Synthetic 30-residue peptide of GPC3
# T3 peptide: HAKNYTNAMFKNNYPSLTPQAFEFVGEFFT
# T4: GPC3 peptide 361-390 (SEQ ID NO: 19) (human)
# T4 construct: Synthetic 30-residue peptide of GPC3
# T4 peptide: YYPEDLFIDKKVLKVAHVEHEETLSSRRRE
# T5: GPC3 peptide 381-410 (SEQ ID NO: 20) (human)
# T5 construct: Synthetic 30-residue peptide of GPC3
# T5 peptide: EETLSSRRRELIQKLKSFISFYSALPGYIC
# T6: GPC3 peptide 461-490 (SEQ ID NO: 24) (human)
# T6 construct: Synthetic 30-residue peptide of GPC3
# T6 peptide: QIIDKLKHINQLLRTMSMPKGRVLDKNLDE
# T7: GPC3 peptide 401-430 (SEQ ID NO: 21) (human)
# T7 construct: Synthetic 30-residue peptide of GPC3
# T7 peptide: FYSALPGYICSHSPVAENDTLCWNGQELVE
# T8: GPC3 peptide 81-110 (SEQ ID NO: 5) (human)
# T8 construct: Synthetic 30-residue peptide of GPC3
# T8 peptide: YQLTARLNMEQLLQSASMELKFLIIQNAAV
# T9: GPC3 peptide 101-130 (SEQ ID NO: 6) (human)
# T9 construct: Synthetic 30-residue peptide of GPC3
# T9 peptide: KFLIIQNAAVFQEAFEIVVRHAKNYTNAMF
# T10: GPC3 peptide 161-190 (SEQ ID NO: 9) (human)
# T10 construct: Synthetic 30-residue peptide of GPC3
# T10 peptide: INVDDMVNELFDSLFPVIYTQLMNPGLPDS
# T11: GPC3 peptide 21-50 (SEQ ID NO: 2) (human)
# T11 construct: Synthetic 30-residue peptide of GPC3
# T11 peptide: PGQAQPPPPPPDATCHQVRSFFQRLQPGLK
# T12: GPC3 peptide 301-330 (SEQ ID NO: 16) (human)
# T12 construct: Synthetic 30-residue peptide of GPC3
# T12 peptide: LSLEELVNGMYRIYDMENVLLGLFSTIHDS
# T13: GPC3 peptide 221-250 (SEQ ID NO: 12) (human)
# T13 construct: Synthetic 30-residue peptide of GPC3
# T13 peptide: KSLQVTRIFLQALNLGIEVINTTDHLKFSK
# T14: GPC3 peptide 241-270 (SEQ ID NO: 13) (human)
# T14 construct: Synthetic 30-residue peptide of GPC3
# T14 peptide: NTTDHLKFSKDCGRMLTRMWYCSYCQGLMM
# T15: GPC3 peptide 261-290 (SEQ ID NO: 14) (human)
# T15 construct: Synthetic 30-residue peptide of GPC3
# T15 peptide: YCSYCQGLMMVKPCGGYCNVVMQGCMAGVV
# T16: GPC3 peptide 281-310 (SEQ ID NO: 15) (human)
# T16 construct: Synthetic 30-residue peptide of GPC3
# T16 peptide: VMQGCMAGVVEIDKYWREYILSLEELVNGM
# T17: GPC3 peptide 441-470 (SEQ ID NO: 23) (human)
# T17 construct: Synthetic 30-residue peptide of GPC3
# T17 peptide: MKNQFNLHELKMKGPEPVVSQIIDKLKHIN
# T18: GPC3 peptide 1-30 (SEQ ID NO: 1) (human)
# T18 construct: Synthetic 30-residue peptide of GPC3
# T18 peptide: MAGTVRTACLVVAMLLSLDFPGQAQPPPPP
# T19: GPC3 peptide 41-70 (SEQ ID NO: 3) (human)
# T19 construct: Synthetic 30-residue peptide of GPC3
# T19 peptide: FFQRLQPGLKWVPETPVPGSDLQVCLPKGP
# T20: GPC3 peptide 181-210 (SEQ ID NO: 10) (human)
# T20 construct: Synthetic 30-residue peptide of GPC3
# T20 peptide: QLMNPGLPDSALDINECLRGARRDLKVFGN
# T21: GPC3 peptide 541-570 (SEQ ID NO: 28) (human)
# T21 construct: Synthetic 30-residue peptide of GPC3
# T21 peptide: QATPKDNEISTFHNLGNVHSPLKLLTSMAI
# T22: GPC3 peptide 61-90 (SEQ ID NO: 4) (human)
# T22 construct: Synthetic 30-residue peptide of GPC3
# T22 peptide: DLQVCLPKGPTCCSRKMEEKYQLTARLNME
# T23: GPC3 peptide 421-450 (SEQ ID NO: 22) (human)
# T23 construct: Synthetic 30-residue peptide of GPC3
# T23 peptide: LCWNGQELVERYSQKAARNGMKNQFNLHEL
# T24: GPC3 peptide 201-230 (SEQ ID NO: 11) (human)
# T24 construct: Synthetic 30-residue peptide of GPC3
# T24 peptide: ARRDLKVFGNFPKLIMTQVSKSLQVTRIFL
# T25: GPC3 peptide 501-530 (SEQ ID NO: 26) (human)
# T25 construct: Synthetic 30-residue peptide of GPC3
# T25 peptide: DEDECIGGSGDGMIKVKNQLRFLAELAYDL
# T26: GPC3 peptide 481-510 (SEQ ID NO: 25) (human)
# T26 construct: Synthetic 30-residue peptide of GPC3
# T26 peptide: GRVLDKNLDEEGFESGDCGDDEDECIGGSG
# T27: GPC3 peptide 521-550 (SEQ ID NO: 27) (human)
# T27 construct: Synthetic 30-residue peptide of GPC3
# T27 peptide: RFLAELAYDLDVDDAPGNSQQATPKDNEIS
# B1: GT114 antibody (antibody, IgG1, V domains shown)
# VH: DVQLQESGPGLVKPSQSLSLTCTVTGYSITSDSAWNWIRQFPGNKLEWMAYIMYSGITSYNPSLKSRISITRDTAKNQFFLQLNSVTTEDSATYYCSRGYWYFDVWGAGTTVTVSS
# VL: QIVLTQSPAIMSASLGEEITLTCSASSSVSYMHWYQQKSGTSPKLLIYSTSILASGVPSRFSGSGSGTFYSLTISSVEAEDAADYYCLQWITYRTFGGGTKLEIKR
# Target: T28, AW3, C-terminally His-tagged recombinant product of positions 1 to 218 of GPC3 (human, UniProt P51654 25-218)
# T28 construct: Expressed in CHO cells, cell pellets used in Western blot; The range is as printed and starts at position 1; not shown: C-terminal His tag
# Experiment: Western blot, pellets of CHO cells expressing the product
# T28 sequence (P51654 25-218): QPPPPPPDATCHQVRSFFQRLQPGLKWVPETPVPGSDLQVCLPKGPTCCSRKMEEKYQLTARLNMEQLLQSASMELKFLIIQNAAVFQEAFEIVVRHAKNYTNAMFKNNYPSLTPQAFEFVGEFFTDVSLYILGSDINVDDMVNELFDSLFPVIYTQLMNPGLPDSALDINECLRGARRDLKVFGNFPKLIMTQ
row,binding result,Binder
1,no binding,B1

# Target: T29, AW2, C-terminally His-tagged recombinant product of positions 1 to 196 of GPC3 (human, UniProt P51654 25-196)
# T29 construct: Expressed in CHO cells, cell pellets used in Western blot; The range is as printed and starts at position 1; also called AW2 (1-196); not shown: C-terminal His tag
# Experiment: as above
# T29 sequence (P51654 25-196): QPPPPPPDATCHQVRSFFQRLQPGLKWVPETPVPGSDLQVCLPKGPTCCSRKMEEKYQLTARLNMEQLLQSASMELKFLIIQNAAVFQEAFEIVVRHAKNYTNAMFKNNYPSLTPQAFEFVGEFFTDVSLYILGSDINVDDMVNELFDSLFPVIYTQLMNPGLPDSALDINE
row,binding result,Binder
1,no binding,B1

# Target: T1, GPC3 peptide 321-350 (SEQ ID NO: 17)
# Experiment: peptide ELISA, peptide on plate
row,binding result,Binder
1,no binding (tested: 2 µg/mL),B1

# Target: T2, GPC3 peptide 551-580 (SEQ ID NO: 29)
# Experiment: peptide ELISA, peptide on plate
row,binding result,Binder
1,no binding (tested: 2 µg/mL),B1

# Target: T3, GPC3 peptide 121-150 (SEQ ID NO: 7)
# Experiment: peptide ELISA, peptide on plate
row,binding result,Binder
1,no binding (tested: 2 µg/mL),B1

# Target: T4, GPC3 peptide 361-390 (SEQ ID NO: 19)
# Experiment: peptide ELISA, peptide on plate
row,binding result,Binder
1,no binding (tested: 2 µg/mL),B1

# Target: T5, GPC3 peptide 381-410 (SEQ ID NO: 20)
# Experiment: peptide ELISA, peptide on plate
row,binding result,Binder
1,no binding (tested: 2 µg/mL),B1

# Target: T6, GPC3 peptide 461-490 (SEQ ID NO: 24)
# Experiment: peptide ELISA, peptide on plate
row,binding result,Binder
1,no binding (tested: 2 µg/mL),B1

# Target: T7, GPC3 peptide 401-430 (SEQ ID NO: 21)
# Experiment: peptide ELISA, peptide on plate
row,binding result,Binder
1,no binding (tested: 2 µg/mL),B1

# Target: T8, GPC3 peptide 81-110 (SEQ ID NO: 5)
# Experiment: peptide ELISA, peptide on plate
row,binding result,Binder
1,no binding (tested: 2 µg/mL),B1

# Target: T9, GPC3 peptide 101-130 (SEQ ID NO: 6)
# Experiment: peptide ELISA, peptide on plate
row,binding result,Binder
1,no binding (tested: 2 µg/mL),B1

# Target: T10, GPC3 peptide 161-190 (SEQ ID NO: 9)
# Experiment: peptide ELISA, peptide on plate
row,binding result,Binder
1,no binding (tested: 2 µg/mL),B1

# Target: T11, GPC3 peptide 21-50 (SEQ ID NO: 2)
# Experiment: peptide ELISA, peptide on plate
row,binding result,Binder
1,no binding (tested: 2 µg/mL),B1

# Target: T12, GPC3 peptide 301-330 (SEQ ID NO: 16)
# Experiment: peptide ELISA, peptide on plate
row,binding result,Binder
1,no binding (tested: 2 µg/mL),B1

# Target: T13, GPC3 peptide 221-250 (SEQ ID NO: 12)
# Experiment: peptide ELISA, peptide on plate
row,binding result,Binder
1,no binding (tested: 2 µg/mL),B1

# Target: T14, GPC3 peptide 241-270 (SEQ ID NO: 13)
# Experiment: peptide ELISA, peptide on plate
row,binding result,Binder
1,no binding (tested: 2 µg/mL),B1

# Target: T15, GPC3 peptide 261-290 (SEQ ID NO: 14)
# Experiment: peptide ELISA, peptide on plate
row,binding result,Binder
1,no binding (tested: 2 µg/mL),B1

# Target: T16, GPC3 peptide 281-310 (SEQ ID NO: 15)
# Experiment: peptide ELISA, peptide on plate
row,binding result,Binder
1,no binding (tested: 2 µg/mL),B1

# Target: T17, GPC3 peptide 441-470 (SEQ ID NO: 23)
# Experiment: peptide ELISA, peptide on plate
row,binding result,Binder
1,no binding (tested: 2 µg/mL),B1

# Target: T18, GPC3 peptide 1-30 (SEQ ID NO: 1)
# Experiment: peptide ELISA, peptide on plate
row,binding result,Binder
1,no binding (tested: 2 µg/mL),B1

# Target: T19, GPC3 peptide 41-70 (SEQ ID NO: 3)
# Experiment: peptide ELISA, peptide on plate
row,binding result,Binder
1,no binding (tested: 2 µg/mL),B1

# Target: T20, GPC3 peptide 181-210 (SEQ ID NO: 10)
# Experiment: peptide ELISA, peptide on plate
row,binding result,Binder
1,no binding (tested: 2 µg/mL),B1

# Target: T21, GPC3 peptide 541-570 (SEQ ID NO: 28)
# Experiment: peptide ELISA, peptide on plate
row,binding result,Binder
1,no binding (tested: 2 µg/mL),B1

# Target: T22, GPC3 peptide 61-90 (SEQ ID NO: 4)
# Experiment: peptide ELISA, peptide on plate
row,binding result,Binder
1,no binding (tested: 2 µg/mL),B1

# Target: T23, GPC3 peptide 421-450 (SEQ ID NO: 22)
# Experiment: peptide ELISA, peptide on plate
row,binding result,Binder
1,no binding (tested: 2 µg/mL),B1

# Target: T24, GPC3 peptide 201-230 (SEQ ID NO: 11)
# Experiment: peptide ELISA, peptide on plate
row,binding result,Binder
1,no binding (tested: 2 µg/mL),B1

# Target: T25, GPC3 peptide 501-530 (SEQ ID NO: 26)
# Experiment: peptide ELISA, peptide on plate
row,binding result,Binder
1,no binding (tested: 2 µg/mL),B1

# Target: T26, GPC3 peptide 481-510 (SEQ ID NO: 25)
# Experiment: peptide ELISA, peptide on plate
row,binding result,Binder
1,no binding (tested: 2 µg/mL),B1

# Target: T27, GPC3 peptide 521-550 (SEQ ID NO: 27)
# Experiment: peptide ELISA, peptide on plate
row,binding result,Binder
1,no binding (tested: 2 µg/mL),B1

# Reference: patent EP3088890B1 (Chugai Seiyaku Kabushiki Kaisha, dated 2020)
